According to PMC10666116, “Tunable force transduction through the Escherichia coli cell envelope” (Proceedings of the National Academy of Sciences of the …, 2023):

Molecular target: the molecule itself
Experiment: cryo-EM structure; single-particle cryo-EM of purified TolQR complex at 7.5 mg/mL in SEC buffer (50 mM Tris/HCl pH 7.5, 300 mM NaCl, 2 mM EDTA, 0.01% LMNG); rigid-body refinement of a published model

B1: TolQ (natural protein, E. coli, UniProt P0ABU9 1-230, looked up)
chain: MTDMNILDLFLKASLLVKLIMLILIGFSIASWAIIIQRTRILNAAAREAEAFEDKFWSGIELSRLYQESQGKRDNLTGSEQIFYSGFKEFVRLHRANSHAPEAVVEGASRAMRISMNRELENLETHIPFLGTVGSISPYIGLFGTVWGIMHAFIALGAVKQATLQMVAPGIAEALIATAIGLFAAIPAVMAYNRLNQRVNKLELNYDNFMEEFTAILHRQAFTVSESNKG
notes: TolQ, E. coli, inner-membrane motor protein of the Tol system; expressed from pCEP13 (pT12-tolQ-tolR); Pentamer in the TolQR complex; also called TolQ pentamer; motor subunit of TolQR
  stoichiometry N: 5
